Experimental data taken from PMC3690534 (Molecular Cell, 2013).
Substitutions are numbered along the chain they refer to. In names and notes the source's numbering stands. One block for each binder: values may come before it. Square brackets hold non-standard residues; d marks the D form. pS = N[C@@H](COP(=O)(O)O)C(=O)O

Tests used:
[1] = target: T1, Saccharomyces cerevisiae Cdh1 WD40 domain (residues 241-550) (S. cerevisiae, UniProt P53197 241-550); experiment: crystal structure
T1 sequence (looked up): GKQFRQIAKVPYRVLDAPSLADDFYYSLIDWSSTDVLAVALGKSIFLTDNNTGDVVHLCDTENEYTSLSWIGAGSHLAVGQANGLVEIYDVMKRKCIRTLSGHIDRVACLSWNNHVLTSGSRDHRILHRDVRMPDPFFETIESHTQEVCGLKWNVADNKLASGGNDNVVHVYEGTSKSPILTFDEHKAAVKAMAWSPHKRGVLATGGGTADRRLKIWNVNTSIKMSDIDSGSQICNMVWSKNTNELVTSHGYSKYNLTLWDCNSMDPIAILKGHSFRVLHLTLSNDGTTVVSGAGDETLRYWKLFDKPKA

[2] = target: T1, Saccharomyces cerevisiae Cdh1 WD40 …; experiment: SAXS
[3] = target: T1, Saccharomyces cerevisiae Cdh1 WD40 …; experiment: AUC
[4] = target: T1, Saccharomyces cerevisiae Cdh1 WD40 …; experiment: SEC-MALS

B1: Acm1 central inhibitory region (residues 59-128) (domain or fragment, S. cerevisiae, UniProt Q08981 59-128, looked up)
chain: AQFMLYEETAEERNIAVHRHNEIYNNNNSVSNENNPSQVKENL[pS]PAKICPYERAFLREGGRIALKDLSVD
binding result [1]: binds

B3: Acm1^ΔN (Acm1 residues 59-209), wild type (domain or fragment, S. cerevisiae, UniProt Q08981 59-209, looked up)
chain: AQFMLYEETAEERNIAVHRHNEIYNNNNSVSNENNPSQVKENLSPAKICPYERAFLREGGRIALKDLSVDEFKGYIQDPLTDETIPLTLPLGDKKISLPSFITPPRNSKISIFFTSKHQGQNPETKISRSTDDVSEKKVVRKLSFHVYEDE
binding result [3]: binds

Further lines, results first:

binding result [2]: binds
B2: Acm1^CIR-mNEN (Acm1^CIR-N90A/E91A/N92A) (domain or fragment, S. cerevisiae, UniProt Q08981 59-128, looked up)
chain: AQFMLYEETAEERNIAVHRHNEIYNNNNSVSAAANPSQVKENLSPAKICPYERAFLREGGRIALKDLSVD

binding result [4]: binds
B4: Acm1^ΔN-T161A (Acm1 residues 59-209, T161A) (domain or fragment, S. cerevisiae, UniProt Q08981 59-209, looked up)
chain: B3 chain with T103A
